The target of assay [1] is His6-MadB (class I lantibiotic dehydratase MadB) (Clostridium sp. Maddingley). Put plainly: SEC-MALS; 100 uL of 20 uM MadB on Superdex 200 10/300 Increase, 50 mM HEPES pH 8.0, 200 mM NaCl, 0.5 mL/min.
For assay [2] the target is unchanged. Description: cryo-EM structure; single particle cryo-EM of purified apo MadB and of MadB with MadL3, C2 symmetry imposed.
The target is the same in assay [3]. Put plainly: nanoDSF; 2 uM His6-MadB with or without 10 uM ligand peptide, 10 min at room temperature, 50 mM HEPES, 500 mM NaCl, pH 7.5, ramp 1 °C/min from 25 to 95 °C, intrinsic fluorescence 330/350 nm. (In general: Differential scanning fluorimetry follows unfolding on heating by fluorescence.)

A word on the stoichiometry N: it is a count of units in the complex or per binding partner. With “His6-MadB (class I lantibiotic dehydratase MadB) (enzyme)”, the stoichiometry N in assay [1] and in assay [2] was 2 throughout.

With “MadL1 (isolated leader peptide of maddinglicin A)”, the Tm shift in assay [3] amounted to 1.8 °C.

The values above are taken from article PMC12241602.
